Laboratory results published in patent publication US20200048348A1 (TENEOBIO, published 2020).
Numbering of substitutions follows the chain as printed.

B1: SEQ ID NO 10 (antibody, IgG1, V domains shown)
VH: EVQLVESGGGLVQPGRSLRLSCAASGFTFDNYAMHWVRQAPGKGLEWVSGISWNSGSIGYADSVKGRFTISRDNAKNSLYLQMNSLRAEDTALYYCAKDSRGYGDYSRGGAYWGQGTLVTVSS
VL: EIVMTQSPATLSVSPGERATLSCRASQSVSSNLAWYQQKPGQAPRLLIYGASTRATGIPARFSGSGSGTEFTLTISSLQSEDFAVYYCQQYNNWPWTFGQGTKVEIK
notes: also called FlicAb
B2: SEQ ID NO 6 (antibody, IgG1, V domains shown)
VH: B1 VH with D30A, G59D
VL: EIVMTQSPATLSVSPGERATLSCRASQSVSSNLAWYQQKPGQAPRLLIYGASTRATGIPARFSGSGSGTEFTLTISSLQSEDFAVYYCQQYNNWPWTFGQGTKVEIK
notes: also called FlicAb
B3: SEQ ID NO 13 (antibody, IgG1, V domains shown)
VH: B1 VH with D30H, R108L
VL: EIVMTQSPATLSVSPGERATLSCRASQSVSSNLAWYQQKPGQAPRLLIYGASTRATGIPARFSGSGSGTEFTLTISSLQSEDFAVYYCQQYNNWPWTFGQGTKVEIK
notes: also called FlicAb
B4: SEQ ID NO 1 (antibody, IgG1, V domains shown)
VH: B1 VH with N31D, S107R, R108L
VL: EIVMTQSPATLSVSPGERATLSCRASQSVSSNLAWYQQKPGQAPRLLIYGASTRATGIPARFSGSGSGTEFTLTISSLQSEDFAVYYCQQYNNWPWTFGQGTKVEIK
notes: also called FlicAb
B5: SEQ ID NO 7 (antibody, IgG1, V domains shown)
VH: B1 VH with D30N, A88G
VL: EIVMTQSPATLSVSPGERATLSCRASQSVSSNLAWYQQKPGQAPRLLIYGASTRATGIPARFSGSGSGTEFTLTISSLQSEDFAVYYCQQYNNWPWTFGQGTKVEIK
notes: also called FlicAb

The binders below were run against human CD3 (human, UniProt P07766 23-207; P04234 22-171) (assay: flow cytometry, parental monospecific anti-CD3 on Jurkat cells; antibody concentration not given).
Sequence of human CD3 (P07766 23-207, one chain of several): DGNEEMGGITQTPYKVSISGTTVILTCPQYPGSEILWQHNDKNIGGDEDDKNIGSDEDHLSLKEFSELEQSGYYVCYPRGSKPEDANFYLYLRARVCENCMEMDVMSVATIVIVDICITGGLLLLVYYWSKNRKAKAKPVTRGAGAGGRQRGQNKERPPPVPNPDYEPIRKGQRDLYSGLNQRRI

Jurkat cell bind (MFI)	Binder
30.5	B1
32.7	B2
21.4	B3
6.1	B4
32.4	B5
